{"source": "patent US20060252692A1", "about": "“Inhibitors for use in hemostasis” (ZymoGenetics, Inc., priority 2002, published 2006)", "test_system": "platelets activated by CRP (platelet GPVI)", "assay": "Inhibition of CRP activation of platelets by zsig37", "format": "cell-based, human", "conditions": "plate coated with 5 μg/ml CRP; zsig37 0-200 μg/ml", "description": "The lysine containing CRP (Ac-GKO-(GPO)10-GKOGV) (SEQ ID NO:15) was synthesized and cross-linked essentially as described by described by Morton (Morton et al., Biochem. J., 306(2):337-344 (Mar. 1, 1995)). The potency of the cross-linked CRP was determined using a using a modified microplate platelet aggregation method as described previously (Bednar B., et al., Thrombosis Research, 77(5):453-463 (1995)). Platelet rich plasma (PRP) was prepared by centrifugation (150 g, 30 min.) from citrated blood obtained from healthy volunteers. Modified Hepes Tyrodes buffer (10 mM Hepes, 137 mM NaCl, 2.7 mM KCL, 0.4 mM NaH2PO4, 1.2mM NaHCO3, 0.1% dextrose and 0.2% BSA fraction V) was used to adjust the platelet concentration to 2.6×10^8/mL. To determine potency, triplicate wells of 0-20 μg/ml of CRP was mixed with platelets in a 96-well flat bottom plate. As a control, collagen-I norm was assayed in triplicate at a final concentration of 1.25 μg/mL. The plate was agitated on a microplate reader and turbidity was monitored as percent light transmitted at 632 nm. The EC50 for the CRP was determined from 3 assays to be 0.1-0.2 μg/ml. […] The plate was washed three times with 5% BSA/PBS and triplicate wells of 0-200 μg/ml of zsig37 was incubated for 1 hour at room temperature. Platelets were then added and assayed as described."}
{"molecule": "zsig37: adipocyte complement related protein homolog, polypeptide of SEQ ID NO:2, inhibits collagen-mediated platelet activation and the complement pathway (protein, listed as Homo sapiens) MGSRGQGLLLAYCLLLAFASGLVLSRVPHVQGEQQEWEGTEELPSPPDHAERAEEQHEKYRPSQDQGLPASRCLRCCDPGTSMYPATAVPQINITILKGEKGDRGDRGLQGKYGKTGSAGARGHTGPKGQKGSMGAPGERCKSHYAAFSVGRKKPMHSNHYYQTVIFDTEFVNLYDHFNMFTGKFYCYVPGLYFFSLNVHTWNQKETYLHIMKNEEEVVILFAQVGDRSIMQSQSLMLELREQDQVWVRLYKGERENAIFSEELDTYITFSGYLVKHATEP", "values": [{"measurement": "inhibition of CRP activation of platelets", "value": "results from 3 of 6 assays demonstrated inhibition of CRP"}]}
